Numbering of substitutions follows the chain as printed. Names may count otherwise.
B1: SspH1 NEL domain (405 to 700) (domain or fragment)
chain: RALHLAVADWLTSAREGEAAQADRWQAFGLEDNAAAFSLVLDRLRETENFKKDAGFKAQISSWLTQLAEDAALRAKTFAMATEATSTCEDRVTHALHQMNNVQLVHNAEKGEYDNNLQGLVSTGREMFRLATLEQIAREKAGTLALVDDVEVYLAFQNKLKESLELTSVTSEMRFFDVSGVTVSDLQAAELQVKTAENSGFSKWILQWGPLHSVLERKVPERFNALREKQISDYEDTYRKLYDEVLKSSGLVDDTDAERTIGVSAMDSAKKEFLDGLRALVDEVLGSYLTARWRLN
notes: also called isolated NEL domain; source: E. coli BL21 Gold, purified (nickel-nitrilotriacetic acid resin, 3C protease, gel filtration)
B2: ΔNSspH1 (161-700) (domain or fragment)
chain: AEYDAVWSKWERDAPAGESPGRAAVVQEMRDCLNNGNPVLNVGASGLTTLPDRLPPHITTLVIPDNNLTSLPELPEGLRELEVSGNLQLTSLPSLPQGLQKLWAYNNWLASLPTLPPGLGDLAVSNNQLTSLPEMPPALRELRVSGNNLTSLPALPSGLQKLWAYNNRLTSLPEMSPGLQELDVSHNQLTRLPQSLTGLSSAARVYLDGNPLSVRTLQALRDIIGHSGIRIHFDMAGPSVPREARALHLAVADWLTSAREGEAAQADRWQAFGLEDNAAAFSLVLDRLRETENFKKDAGFKAQISSWLTQLAEDAALRAKTFAMATEATSTCEDRVTHALHQMNNVQLVHNAEKGEYDNNLQGLVSTGREMFRLATLEQIAREKAGTLALVDDVEVYLAFQNKLKESLELTSVTSEMRFFDVSGVTVSDLQAAELQVKTAENSGFSKWILQWGPLHSVLERKVPERFNALREKQISDYEDTYRKLYDEVLKSSGLVDDTDAERTIGVSAMDSAKKEFLDGLRALVDEVLGSYLTARWRLN
notes: also called WT SspH1; source: E. coli BL21 Gold, purified (nickel-nitrilotriacetic acid resin, 3C protease, gel filtration)
B3: E487R SspH1 (domain or fragment)
chain: B2 chain with E327R
notes: also called E487R mutant; source: E. coli BL21 Gold, purified (nickel-nitrilotriacetic acid resin, 3C protease, gel filtration)
B4: PKN1 HR1b domain (residues 122-199) (domain or fragment)
chain: not shown
notes: also called HR1b PKN1; substrate PKN1; source: E. coli BL21 Gold, purified (nickel-nitrilotriacetic acid resin, 3C protease, gel filtration)

How the values were obtained:
Conditions in all cases: both partners purified
[1] = molecular target: T1, 15N-labeled ubiquitin (UniProt P0CG48 1-76, 15N isotope-enriched); experiment: NMR titration; 15N-Ub titrated with SspH1 constructs; 1H-15N HSQC, 800 MHz; chemical shift perturbations and line broadening of Ub backbone amides
T1 construct: also called 15N-Ub; free Ub

[2] = molecular target: B2; experiment: SEC-MALS; SEC-MALLS of FL SspH1 and ΔNSspH1 alone and with the substrate PKN1; in the range of concentrations explored
[3] = molecular target: T2, full-length SspH1 (1 to 700) (Salmonella, UniProt D0ZVG2 1-700); experiment: as above
T2 construct: also called FL SspH1; FL protein; source: E. coli BL21 Gold, purified (nickel-nitrilotriacetic acid resin, 3C protease, gel filtration)
T2 sequence: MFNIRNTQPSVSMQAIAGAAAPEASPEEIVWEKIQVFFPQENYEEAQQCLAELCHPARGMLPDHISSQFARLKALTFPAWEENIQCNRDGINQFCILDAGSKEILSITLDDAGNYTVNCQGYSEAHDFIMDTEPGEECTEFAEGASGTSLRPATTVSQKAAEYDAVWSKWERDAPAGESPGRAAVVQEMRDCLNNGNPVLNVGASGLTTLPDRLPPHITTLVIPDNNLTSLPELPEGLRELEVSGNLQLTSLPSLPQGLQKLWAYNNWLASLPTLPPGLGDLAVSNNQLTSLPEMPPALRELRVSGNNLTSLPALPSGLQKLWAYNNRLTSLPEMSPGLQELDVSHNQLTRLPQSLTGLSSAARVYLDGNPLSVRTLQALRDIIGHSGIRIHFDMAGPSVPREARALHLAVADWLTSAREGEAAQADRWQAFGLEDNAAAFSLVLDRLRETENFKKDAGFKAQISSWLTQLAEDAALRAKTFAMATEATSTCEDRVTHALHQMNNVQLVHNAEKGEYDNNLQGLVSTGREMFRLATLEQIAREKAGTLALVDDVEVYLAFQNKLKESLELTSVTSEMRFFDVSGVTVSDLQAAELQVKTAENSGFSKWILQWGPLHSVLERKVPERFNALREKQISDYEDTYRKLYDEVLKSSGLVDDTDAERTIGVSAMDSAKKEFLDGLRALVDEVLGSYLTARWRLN

Row | Binder | binding result [1] | stoichiometry N [2] | stoichiometry N [3]
1 | B1 | binds |  | 
2 | B2 | binds |  | 
3 | B3 | binds |  | 
4 | B4 |  | 1 | 1
